* marks the point of attachment. Biotin = O=C1N[C@H]2[C@H](CS[C@H]2CCCCC(=O)*)N1

T1: TGF-β2 (Homo sapiens, UniProt P61812)
T1 chain: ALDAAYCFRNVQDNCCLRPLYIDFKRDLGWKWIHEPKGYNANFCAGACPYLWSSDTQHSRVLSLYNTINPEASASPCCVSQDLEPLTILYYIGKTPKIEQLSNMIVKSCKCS

The test concerns the target T1, TGF-β2. The test is described as follows: SPR.
For Biotin-DATMIWTMMQNKKTFTK-NH2 [P4-mZP 732-748], the Kd (as a rule, the concentration at which binding is half-saturated) is roughly 190 nM. Molecule MIWTMMQNKKTFTKP [P1-mZP ZP-C peptide] returned a Kd of 8 nM.

Regarding Biotin-DASIIWAMMQNKKTFTK-NH2 [P5-hZP 734-750], the Kd was roughly 350 nM.

Values taken from paper PMC3695229 (2013).
